No end group written: not given here.
T1: pepscan peptide 2: 4-TATCATQRLA-13 (human)
T1 construct: Spotted on a nitrocellulose membrane
T1 peptide: TATCATQRLA

T2: pepscan peptide 1: 1-KCNTATCATQ-10 (human, ends and bridges not checked; cysteine pairing not given here)
T2 construct: Spotted on a nitrocellulose membrane
T2 peptide: KCNTATCATQ

T3: pepscan peptide 6: 16-LVHSSNNFGA-25 (human)
T3 construct: Spotted on a nitrocellulose membrane
T3 peptide: LVHSSNNFGA

T4: pepscan peptide 7: 19-SSNNFGAILS-28 (human)
T4 construct: Spotted on a nitrocellulose membrane
T4 peptide: SSNNFGAILS

T5: human islet amyloid polypeptide (human IAPP), IAPP solution containing IAPP fibrils (human, not fully specified; disulfide bridge between cysteine residues 2 and 7 and an amidated C-terminus (as the filing describes human IAPP))
T5 construct: The human IAPP solution used for ELISA coating contained IAPP fibrils (electron microscopy); also called hIAPP; amylin
T5 peptide: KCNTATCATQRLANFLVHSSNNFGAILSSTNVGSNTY


Experiments:
[1] = molecular target: bovine serum albumin (BSA) (bovine, UniProt P02769 25-607); assay: direct ELISA, BSA coated at 10 µg/ml
[2] = molecular target: T6, pathological Aβ amyloid (Alzheimer's disease human brain) (human, UniProt P05067 672-713); assay: immunohistochemistry, paraffin-embedded Alzheimer's disease brain sections
T6 construct: also called Aβ deposits

[3] = molecular target: T1, pepscan peptide 2: 4-TATCATQRLA-13; assay: pepscan on nitrocellulose membrane
[4] = molecular target: T2, pepscan peptide 1: 1-KCNTATCATQ-10; assay: pepscan on nitrocellulose membrane, antibody 1 µg/ml
[5] = molecular target: T3, pepscan peptide 6: 16-LVHSSNNFGA-25; assay: as above
[6] = molecular target: T4, pepscan peptide 7: 19-SSNNFGAILS-28; assay: as above
[7] = molecular target: T5, human islet amyloid polypeptide (human …); assay: direct ELISA, human IAPP solution (fibrils) coated at 10 µg/ml
[8] = molecular target: T5, human islet amyloid polypeptide (human …); assay: direct ELISA, human IAPP solution (fibrils) coated at 10 µg/ml, comparison with chimeric

Sequence of bovine serum albumin (BSA) (P02769 25-607 limits assumed): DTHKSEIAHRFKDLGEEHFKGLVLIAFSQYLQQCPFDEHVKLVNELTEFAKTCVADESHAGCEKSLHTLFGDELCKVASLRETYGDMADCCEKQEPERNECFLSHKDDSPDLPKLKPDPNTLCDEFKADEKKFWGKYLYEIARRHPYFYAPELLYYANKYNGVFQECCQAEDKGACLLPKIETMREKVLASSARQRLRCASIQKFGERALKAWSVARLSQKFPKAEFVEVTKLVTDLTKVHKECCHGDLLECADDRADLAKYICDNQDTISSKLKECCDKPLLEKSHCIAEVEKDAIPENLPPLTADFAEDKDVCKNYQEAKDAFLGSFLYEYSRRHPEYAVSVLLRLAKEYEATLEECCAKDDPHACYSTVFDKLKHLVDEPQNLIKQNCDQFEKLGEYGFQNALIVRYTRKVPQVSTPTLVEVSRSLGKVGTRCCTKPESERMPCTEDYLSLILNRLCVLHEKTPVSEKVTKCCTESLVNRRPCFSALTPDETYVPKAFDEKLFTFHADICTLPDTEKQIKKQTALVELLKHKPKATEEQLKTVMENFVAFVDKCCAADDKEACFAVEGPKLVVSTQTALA

| Binder | binding result [1] | binding result [2] | other results |
| --- | --- | --- | --- |
| NI-203.8E3 (antibody, V domains shown, Recombinant human antibody, kappa light chain, detected with anti-human IgG gamma secondary) VH: QVQLVQSGAEVKKPGSSVKVSCKASGGTFSSHTISWVRQAPGQGLEWMGGIIPIFGTANYAQKFQDRVTVTADKSTNTAYMELSSLRPEDTAVYYCAKGELEPRILYYYGMDVWGRGTTVTVSS VL: DVVMTQSPLSLPVTLGQPASISCRSSQSLVYSDGNTYLNWFHQRPGQSPRRLIYKVSNRDSGVPDRFSGSGSGTDFTLKISRVEAEDVGVYYCMQGSNWPGTFGQGTKVEIK | no binding |  |  |
| NI-203.9A2 (antibody, V domains shown, Recombinant human antibody, kappa light chain, detected with anti-human IgG gamma secondary) VH: EVQLVESGGGLVQPGGSLRLSCAASGFTFSTFAMSWVRQAPGKGLEWVSTISGSGDNTYYADSLKGRFTISRDNSKNTLYLQVNSLRPEDTAVYYCAKSPSSLLATYFDYWGQGTLVTVSS VL: EIVLTQSPSTLSASVGDRVTITCRASESINSWLAWYQQKPGKGPKLLIYKASSLQSGVPSRFSGSGSGTEFTLTISSLQPDDFATYYCQQHNSYWTFGQGTKVEIK | no binding | no binding (tested: 50 nM) |  |
| mouse chimeric NI-203.9A2 (antibody, V domains shown, Mouse chimeric version of the human antibody (said to comprise the CDR domains of the human antibody)) VH: EVQLVESGGGLVQPGGSLRLSCAASGFTFSTFAMSWVRQAPGKGLEWVSTISGSGDNTYYADSLKGRFTISRDNSKNTLYLQVNSLRPEDTAVYYCAKSPSSLLATYFDYWGQGTLVTVSS VL: EIVLTQSPSTLSASVGDRVTITCRASESINSWLAWYQQKPGKGPKLLIYKASSLQSGVPSRFSGSGSGTEFTLTISSLQPDDFATYYCQQHNSYWTFGQGTKVEIK | no binding |  |  |
| NI-203.26C11 (antibody, V domains shown, Recombinant human antibody, kappa light chain, detected with anti-human IgG gamma secondary) VH: QVQLQESGPGLVKPSQTLSLTCTVSGGSISSGNYYWTWIRQPAGKGLEWIGHIYSSGTTNYNPSLESRVTISVDTSKNQFSLSLNSVTAADTAVYYCARPLATVPDAFNIWGQGTMVTVSS VL: not shown | no binding | no binding (tested: 50 nM) | binding result [3]: no binding (tested: 1 µg/ml); binding result [4]: binds |
| mouse chimeric NI-203.26C11 (antibody, V domains shown, Mouse chimeric version of the human antibody (said to comprise the CDR domains of the human antibody)) VH: QVQLQESGPGLVKPSQTLSLTCTVSGGSISSGNYYWTWIRQPAGKGLEWIGHIYSSGTTNYNPSLESRVTISVDTSKNQFSLSLNSVTAADTAVYYCARPLATVPDAFNIWGQGTMVTVSS VL: not shown | no binding |  |  |
| NI-203.19H8 (antibody, V domains shown, Recombinant human antibody, kappa light chain, detected with anti-human IgG gamma secondary) VH: EVQLVESGGGVVQPGTSLRLSCAASGFTFSSYGMHWVRQAPGKGLEWVAIIWYDGSKEYYADSLKGRVTISRDNSENTLYLQLHTLRVEDTAVYFCARTIASATVDHGMDVWGQGTLVTVSS VL: DVVMTQSPSSVSASVGDRVTITCRASHDISTWLAWYQQRPGKAPNLLIFGASRLQSGVSPRFSGSGSGTDFTLTISSLQPEDFATYYCQQTNNFPPTFGQGTRLEIK | no binding | no binding (tested: 50 nM) | binding result [5]: binds; binding result [6]: binds; EC50 [7]: 0.022 µM; EC50 [8]: 0.0229 µM |
| mouse chimeric NI-203.19H8 (antibody, V domains shown, Mouse chimeric version of the human antibody (said to comprise the CDR domains of the human antibody)) VH: EVQLVESGGGVVQPGTSLRLSCAASGFTFSSYGMHWVRQAPGKGLEWVAIIWYDGSKEYYADSLKGRVTISRDNSENTLYLQLHTLRVEDTAVYFCARTIASATVDHGMDVWGQGTLVTVSS VL: DVVMTQSPSSVSASVGDRVTITCRASHDISTWLAWYQQRPGKAPNLLIFGASRLQSGVSPRFSGSGSGTDFTLTISSLQPEDFATYYCQQTNNFPPTFGQGTRLEIK | no binding |  | EC50 [7]: 0.0239 µM |
